Experimental data: article doi:10.1101/2021.10.11.464003

T1: MhAgo_DM (Marinitoga hydrogenitolerans, UniProt A0A1M5A5Z8 1-640, D445A;D515A)
T1 sequence: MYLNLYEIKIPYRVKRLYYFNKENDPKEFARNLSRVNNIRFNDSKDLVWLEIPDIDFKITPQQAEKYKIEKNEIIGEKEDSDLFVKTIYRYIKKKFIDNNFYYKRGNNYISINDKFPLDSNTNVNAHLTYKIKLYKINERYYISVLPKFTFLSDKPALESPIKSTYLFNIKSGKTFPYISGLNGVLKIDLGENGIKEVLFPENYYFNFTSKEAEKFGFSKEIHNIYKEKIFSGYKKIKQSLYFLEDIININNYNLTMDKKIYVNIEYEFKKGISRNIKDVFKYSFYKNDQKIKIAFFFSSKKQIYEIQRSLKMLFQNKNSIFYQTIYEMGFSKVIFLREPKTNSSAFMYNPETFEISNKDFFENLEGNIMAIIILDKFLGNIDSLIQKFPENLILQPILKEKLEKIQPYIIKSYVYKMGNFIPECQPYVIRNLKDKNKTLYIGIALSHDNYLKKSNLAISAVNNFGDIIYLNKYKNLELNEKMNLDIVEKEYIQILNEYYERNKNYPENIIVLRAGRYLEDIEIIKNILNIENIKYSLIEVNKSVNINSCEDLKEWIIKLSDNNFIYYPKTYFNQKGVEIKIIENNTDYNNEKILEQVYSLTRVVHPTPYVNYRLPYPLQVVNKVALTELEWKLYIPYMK

B1: 5'OH-gDNA:tDNA duplex (dsDNA)
DNA 1: CGAGGTAGTAGGTTGTAT
DNA 2: AAACGACGGCCAGTGCCAAGCTTACTATACAACCTACTACCTCGT
modifications: guide 5'OH
B2: 5'P-gDNA:tDNA duplex (dsDNA)
DNA 1: CGAGGTAGTAGGTTGTAT
DNA 2: B1 DNA 2
modifications: guide 5' phosphate
B3: 5'OH-gRNA:tDNA duplex (DNA:RNA)
RNA: CGAGGUAGUAGGUUGUAU
DNA: B1 DNA 2
modifications: guide 5'OH
B4: 5'P-gRNA:tDNA duplex (DNA:RNA)
RNA: CGAGGUAGUAGGUUGUAU
DNA: B1 DNA 2
modifications: guide 5' phosphate
B5: 5'OH-gRNA:tRNA duplex (dsRNA)
RNA 1: CGAGGUAGUAGGUUGUAU
RNA 2: AAACGACGGCCAGUGCCAAGCUUACUAUACAACCUACUACCUCGU
modifications: guide 5'OH
B6: 5'P-gDNA:tRNA duplex (DNA:RNA)
DNA: CGAGGTAGTAGGTTGTAT
RNA: B5 RNA 2
modifications: guide 5' phosphate
B7: 5'P-gRNA:tRNA duplex (dsRNA)
RNA 1: CGAGGUAGUAGGUUGUAU
RNA 2: B5 RNA 2
modifications: guide 5' phosphate
B8: 5'OH-gDNA:tRNA duplex (DNA:RNA)
DNA: CGAGGTAGTAGGTTGTAT
RNA: B5 RNA 2
modifications: guide 5'OH

Each binder was assayed against T1, MhAgo_DM (assay: EMSA).
B1 gave a Kd of 119 ± 4.8 nM. For B2, the Kd was 145 ± 11.5 nM. With B3 the Kd was 121 ± 4.66 nM. Binder B4 has a Kd of 148 ± 4.52 nM. B5 showed a Kd of 125 ± 6.83 nM. Work on B6 yielded a Kd of 140 ± 5.37 nM. B7 showed a Kd of 232 ± 5.07 nM. B8 showed a Kd of 102 ± 1.69 nM.
